Data: patent publication US20210115138A1 (WUXI BIOLOGICS IRELAND, published 2021)
One block for each binder: values may come before it.

How the values were obtained:
human LAG-3 on cells [1] = molecular target: T1, human LAG-3 on cells (human, UniProt P18627 23-525); assay: FACS affinity test on cell surface human LAG-3
T1 construct: whole, on cells; also called cell surface human LAG-3; human LAG-3 expressing 293F cells
T1 sequence (looked up): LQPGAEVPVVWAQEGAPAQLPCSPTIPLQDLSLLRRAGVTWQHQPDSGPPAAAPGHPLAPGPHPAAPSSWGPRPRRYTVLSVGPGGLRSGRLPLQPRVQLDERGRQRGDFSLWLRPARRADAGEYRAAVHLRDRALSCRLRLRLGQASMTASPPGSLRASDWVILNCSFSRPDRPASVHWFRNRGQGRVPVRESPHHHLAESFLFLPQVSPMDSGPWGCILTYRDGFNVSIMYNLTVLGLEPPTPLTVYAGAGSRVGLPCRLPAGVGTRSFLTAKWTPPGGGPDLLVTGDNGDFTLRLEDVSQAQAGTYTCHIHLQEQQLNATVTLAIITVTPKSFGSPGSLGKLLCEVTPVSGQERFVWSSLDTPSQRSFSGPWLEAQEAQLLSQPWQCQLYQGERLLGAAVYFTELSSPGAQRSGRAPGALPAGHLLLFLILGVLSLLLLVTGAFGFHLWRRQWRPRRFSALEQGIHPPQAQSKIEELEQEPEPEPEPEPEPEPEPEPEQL

[2] = molecular target: T2, human LAG-3 protein (Example 3) (human, UniProt P18627 23-450, limits assumed); assay: SPR; SPR, direct binding
T2 construct: human is stated for the SPR test
T2 sequence (looked up): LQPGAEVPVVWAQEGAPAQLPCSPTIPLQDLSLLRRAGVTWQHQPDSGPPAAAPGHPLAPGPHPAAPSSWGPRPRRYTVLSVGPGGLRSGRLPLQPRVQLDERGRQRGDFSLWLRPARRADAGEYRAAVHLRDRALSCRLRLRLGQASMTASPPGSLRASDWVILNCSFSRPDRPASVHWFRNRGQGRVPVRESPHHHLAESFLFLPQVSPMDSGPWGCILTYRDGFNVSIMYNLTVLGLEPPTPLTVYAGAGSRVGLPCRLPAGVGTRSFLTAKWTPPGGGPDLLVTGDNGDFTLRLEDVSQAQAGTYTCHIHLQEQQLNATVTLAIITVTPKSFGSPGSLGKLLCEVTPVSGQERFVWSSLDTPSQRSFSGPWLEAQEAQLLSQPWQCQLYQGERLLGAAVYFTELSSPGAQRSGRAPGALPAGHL

[3] = molecular target: T2, human LAG-3 protein (Example 3); assay: ELISA; blocking of LAG-3 protein binding to LSECtin; ELISA; blocking LAG-3 binding to LSECtin
[4] = molecular target: T2, human LAG-3 protein (Example 3); assay: FACS; blocking of LAG-3 protein binding to MHC-II on Raji cells; FACS; blocking LAG-3 binding to MHC-II on Raji cells
[5] = molecular target: T2, human LAG-3 protein (Example 3); assay: ELISA; blocking of LAG-3 protein binding to Galectin-3; ELISA; blocking LAG-3 binding to Galectin-3
human LAG-3 on cells [6] = molecular target: T1, human LAG-3 on cells; assay: FACS on cell surface human LAG-3
[7] = molecular target: cynomolgus LAG-3 (Example 3) (cynomolgus); assay: method not stated
cynomolgus PD-1 on cells = molecular target: T3, cynomolgus PD-1 on cells (cynomolgus, UniProt B0LAJ3 25-288); assay: flow cytometry on cynomolgus PD-1 expressing 293F cells
T3 construct: also called cell surface cynomolgus PD-1
Protocol: (§1) MFI of the cells was measured by flow cytometry and analyzed by FlowJo.

[8] = molecular target: T4, mouse Fc-tagged human PD-1 protein (human, UniProt Q15116 25-170); assay: ELISA; antibody coated, mFc-tagged PD-1 titrated
T4 construct: extracellular domain; also called mouse Fc-tagged PD-1 protein; not shown: mouse Fc tag

[9] = molecular target: T4, mouse Fc-tagged human PD-1 protein; assay: dual-binding ELISA; mFc-PD-1 coated, antibody titrated, detected by His-tagged LAG-3 and anti-His-HRP; dual binding: PD-1 and LAG-3 protein together
Human LAG-3 without tag = molecular target: T5, Human LAG-3 without tag (human, UniProt P18627 23-450); assay: SPR; antibody immobilized, untagged human LAG-3 injected, single-cycle kinetics
T5 construct: extracellular domain; also called untagged LAG-3 ECD protein
T5 sequence (looked up): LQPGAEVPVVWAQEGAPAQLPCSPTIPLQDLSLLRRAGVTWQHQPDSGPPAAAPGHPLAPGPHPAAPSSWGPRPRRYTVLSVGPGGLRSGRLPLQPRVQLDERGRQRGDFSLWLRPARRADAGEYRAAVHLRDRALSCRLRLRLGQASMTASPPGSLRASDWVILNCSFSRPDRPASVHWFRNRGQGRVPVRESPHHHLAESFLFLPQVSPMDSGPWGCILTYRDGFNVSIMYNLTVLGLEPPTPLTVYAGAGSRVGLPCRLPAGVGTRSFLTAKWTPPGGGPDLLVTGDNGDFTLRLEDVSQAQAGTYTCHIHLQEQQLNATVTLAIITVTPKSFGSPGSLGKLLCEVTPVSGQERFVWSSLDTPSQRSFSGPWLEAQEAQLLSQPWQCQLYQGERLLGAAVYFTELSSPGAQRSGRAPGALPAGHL
Protocol: The chip was regenerated with 10 mM glycine (pH 1.5).
(§2) The sensorgrams of blank surface and buffer channel were subtracted from the test sensorgrams. The experimental data was fitted by 1:1 model using Langmiur analysis.

human PD-1 on cells [10] = molecular target: T6, human PD-1 on cells (human, UniProt Q15116 25-288); assay: cell-based or functional assay
human LAG-3 on cells [11] = molecular target: T1, human LAG-3 on cells; assay: cell-based or functional assay
human CD28 protein = molecular target: T7, human CD28 protein (human, UniProt P10747 19-152); assay: ELISA, human CD28 coated at 1 ug/mL, antibody added at 0.67 and 6.7 nM, OD450
T7 construct: extracellular domain
Protocol: (§3) Cross-reactivity to human CD4, CTLA-4 or CD28 was measured by ELISA. Plates were coated with human CD4, CTLA-4 or CD28 at 1 μg/mL overnight at 4° C. […] The plates were then washed and subsequently incubated with corresponding secondary antibody for 60 min. After washing, TMB substrate was added and the color reaction was stopped by 2M HCl.

human CD4 protein = human CD4 protein (human, UniProt P01730 26-390, limits assumed); assay: ELISA, human CD4 coated at 1 ug/mL, antibody added at 0.67 and 6.7 nM, OD450
Protocol: as §3

[12] = molecular target: T8, mouse Fc-tagged human LAG-3 protein (human, UniProt P18627 23-450); assay: ELISA; antibody coated, mFc-tagged LAG-3 titrated
T8 construct: extracellular domain; also called mouse Fc-tagged LAG-3 protein; not shown: mouse Fc tag
T8 sequence (looked up): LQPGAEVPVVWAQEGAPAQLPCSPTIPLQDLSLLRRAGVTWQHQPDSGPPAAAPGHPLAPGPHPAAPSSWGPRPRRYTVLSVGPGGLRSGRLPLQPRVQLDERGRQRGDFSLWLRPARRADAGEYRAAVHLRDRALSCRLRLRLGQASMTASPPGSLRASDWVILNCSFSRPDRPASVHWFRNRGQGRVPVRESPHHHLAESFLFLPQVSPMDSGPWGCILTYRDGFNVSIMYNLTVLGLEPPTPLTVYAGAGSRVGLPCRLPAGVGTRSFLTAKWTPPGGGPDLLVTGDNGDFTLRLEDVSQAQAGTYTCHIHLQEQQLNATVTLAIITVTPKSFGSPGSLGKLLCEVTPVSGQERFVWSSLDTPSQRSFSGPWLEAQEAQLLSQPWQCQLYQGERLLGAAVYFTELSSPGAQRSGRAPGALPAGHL
Protocol: (§4) The plates were then washed and subsequently incubated with HRP-labeled goat anti-mouse IgG antibody for 1 hour. After washing, TMB substrate was added and the color reaction was stopped by 2M HCl. The absorbance at 450 nm was read using a microplate reader.

[13] = molecular target: T8, mouse Fc-tagged human LAG-3 protein; assay: flow cytometry; blocking of mFc-LAG-3 binding to MHC-II on Raji cells
Protocol: The mixture was transferred into the 96-well plates seeded with Raji cells which express MHC-II on the surface. […] The MFI was evaluated by flow cytometry and analyzed by the software FlowJo.

mouse PD-1 protein = molecular target: T9, mouse PD-1 protein (mouse, UniProt Q02242 25-167, limits assumed); assay: ELISA, antibody coated on the plate, mouse PD-1 (His tag on the sheet) added at 0.25, 2.5 and 25 nM, OD450
T9 sequence (looked up): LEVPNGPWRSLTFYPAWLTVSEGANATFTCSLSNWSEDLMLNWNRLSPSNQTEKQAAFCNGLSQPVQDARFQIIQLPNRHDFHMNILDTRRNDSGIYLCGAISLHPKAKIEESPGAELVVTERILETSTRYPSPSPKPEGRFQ
Protocol: as §4, with “After blocking and washing, various concentrations of mouse PD-1 protein were added to the plates and incubated at room temperature for 1 hour. The plates” for “The plates”

human PD-1 on cells [14] = molecular target: T6, human PD-1 on cells; assay: flow cytometry; competition with mFc-PD-L1 on PD-1 expressing CHO-S cells
Protocol: The mixture was transferred into the 96-well plates seeded with PD-1 expressing CHO-S cells. […] The MFI was evaluated by flow cytometry and analyzed by the software FlowJo.

[15] = molecular target: T10, cynomolgus LAG-3 on cells (cynomolgus); assay: flow cytometry on cynomolgus LAG-3 expressing 293F cells
T10 construct: whole, on cells; also called cell surface cynomolgus LAG-3
Protocol: as §1

[16] = molecular target: T11, His-tagged human PD-1 protein (MW: 40 KD) (human, UniProt Q15116 25-167); assay: SPR Biacore 8K; antibody captured on anti-human Fc, His-PD-1 injected
T11 construct: not shown: His tag
Protocol: Binding affinity of the bispecific antibodies to the antigen were determined by SPR assay using Biacore 8K. PD-1×LAG-3 antibodies were captured on an anti-human IgG Fc antibody immobilized CMS sensor chip (GE).
as §2

human CTLA-4 protein = molecular target: T12, human CTLA-4 protein (human, UniProt P16410 36-161); assay: ELISA, human CTLA-4 coated at 1 ug/mL, antibody added at 0.67 and 6.7 nM, OD450
T12 construct: extracellular domain
Protocol: as §3

human LAG-3 on cells [17] = molecular target: T1, human LAG-3 on cells; assay: flow cytometry on human LAG-3 expressing 293F cells
Protocol: (§5) MFI of the cells was measured by flow cytometry and analyzed by FlowJo (version 7.6.1).

human PD-1 on cells [18] = molecular target: T6, human PD-1 on cells; assay: flow cytometry on human PD-1 expressing cells
Protocol: as §5

T11 sequence (Q15116 25-167 limits assumed): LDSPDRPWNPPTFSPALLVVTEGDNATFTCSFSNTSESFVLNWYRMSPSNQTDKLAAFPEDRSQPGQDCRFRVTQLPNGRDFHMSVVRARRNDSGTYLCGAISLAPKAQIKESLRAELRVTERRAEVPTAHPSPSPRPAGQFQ
T6 sequence (Q15116 25-288): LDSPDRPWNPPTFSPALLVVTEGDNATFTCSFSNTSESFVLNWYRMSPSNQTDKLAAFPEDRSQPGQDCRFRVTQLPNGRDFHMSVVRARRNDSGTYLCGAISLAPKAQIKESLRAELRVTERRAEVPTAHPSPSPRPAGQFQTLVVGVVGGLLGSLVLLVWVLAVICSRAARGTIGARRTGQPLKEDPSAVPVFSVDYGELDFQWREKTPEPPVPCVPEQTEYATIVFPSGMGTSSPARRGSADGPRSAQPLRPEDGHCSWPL
T4 sequence (Q15116 25-170): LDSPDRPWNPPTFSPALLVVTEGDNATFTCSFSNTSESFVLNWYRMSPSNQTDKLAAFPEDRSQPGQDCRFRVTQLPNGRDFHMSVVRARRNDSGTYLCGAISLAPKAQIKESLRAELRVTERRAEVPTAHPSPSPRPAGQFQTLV
T12 sequence (P16410 36-161): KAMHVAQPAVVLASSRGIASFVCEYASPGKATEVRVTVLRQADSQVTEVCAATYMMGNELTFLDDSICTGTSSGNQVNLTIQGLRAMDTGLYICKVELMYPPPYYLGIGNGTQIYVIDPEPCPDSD
T3 sequence (B0LAJ3 entry or part of it limits assumed): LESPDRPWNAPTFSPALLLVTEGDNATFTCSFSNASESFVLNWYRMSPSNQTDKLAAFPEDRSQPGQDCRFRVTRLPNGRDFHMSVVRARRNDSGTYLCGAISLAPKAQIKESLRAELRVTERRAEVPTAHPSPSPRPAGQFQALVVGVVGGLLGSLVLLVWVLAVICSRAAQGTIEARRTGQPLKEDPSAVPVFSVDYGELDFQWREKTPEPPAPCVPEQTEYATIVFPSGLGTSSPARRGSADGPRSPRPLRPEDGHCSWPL

- Kd (human LAG-3 on cells [1]): 0.053 nM
- Kd [2]: 0.0106 nM
- EC50 [3]: 0.51 nM
- EC50 [4]: 0.67 nM
- EC50 [5]: 0.56 nM
- EC50 (human LAG-3 on cells [6]): 0.13 nM
- EC50 [7]: 3.92 nM
B1: W3395-3.40.19 (antibody, V domains shown)
VH: QLQLQESGPGLVKPSETLSLTCTVSGDSISSTSYYWGWIRQPPGKGLEWIGSFYYSGSTYYNPSLKSRVTISVDTSKNQFSLKLNSVTAADTAVYYCARMQLWSYDVDVWGQGTTVTVSS
VL: QSALTQPASVSGSPGQSITISCTGTSSDVGGYDYVAWYQQHPGKVPKLMIYDVSERPSGVSNRFSGSKSGNTASLTISGLQAEDEADYYCSSYTSTTTLVVFGGGTKLSVL
notes: Fully human monoclonal anti-LAG-3 antibody; also called human W3395-3.40.19 LAG-3 Ab

- EC50 (cynomolgus PD-1 on cells): 0.38 nM
- EC50 [8]: 0.07 nM
- EC50 [9]: 0.04 nM
- Kd (Human LAG-3 without tag): < 0.0261 nM
- koff (Human LAG-3 without tag): < 1e-05 s⁻¹
- kon (Human LAG-3 without tag): 383000 M⁻¹ s⁻¹
- EC50 of NFAT pathways enhancement (luciferase reporter) (human PD-1 on cells [10]): 0.4 nM
- EC50 of IL-2 pathways enhancement (luciferase reporter) (human LAG-3 on cells [11]): 0.92 nM
- binding result (human CD28 protein): no binding (tested: 6.7 nM)
- binding result (human CD4 protein): no binding (tested: 6.7 nM)
- EC50 [12]: 0.27 nM
- IC50 [13]: 2.2 nM
- binding result (mouse PD-1 protein): no binding (tested: 25 nM (mouse PD-1))
- IC50 (human PD-1 on cells [14]): 1.01 nM
- EC50 [15]: 6.5 nM
- Kd [16]: 2.46 nM
- koff [16]: 0.000695 s⁻¹
- kon [16]: 283000 M⁻¹ s⁻¹
- binding result (human CTLA-4 protein): no binding (tested: 6.7 nM)
- EC50 (human LAG-3 on cells [17]): 2.57 nM
- EC50 (human PD-1 on cells [18]): 1.32 nM
B2: W365-U6T1.G14-1.uIgG4.SP (bispecific antibody)
heavy: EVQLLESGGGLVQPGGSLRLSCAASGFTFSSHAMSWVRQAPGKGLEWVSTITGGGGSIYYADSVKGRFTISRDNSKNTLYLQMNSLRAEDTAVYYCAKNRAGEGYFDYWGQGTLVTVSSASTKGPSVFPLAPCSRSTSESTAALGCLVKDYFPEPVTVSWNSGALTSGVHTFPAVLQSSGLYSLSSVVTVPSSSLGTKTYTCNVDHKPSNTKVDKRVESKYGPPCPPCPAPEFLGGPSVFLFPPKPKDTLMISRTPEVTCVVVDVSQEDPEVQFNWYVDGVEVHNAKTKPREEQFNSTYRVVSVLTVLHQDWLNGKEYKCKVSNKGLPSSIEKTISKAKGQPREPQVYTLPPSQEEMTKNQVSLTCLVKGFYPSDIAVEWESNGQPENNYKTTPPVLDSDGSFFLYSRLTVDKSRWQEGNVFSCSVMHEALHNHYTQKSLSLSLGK
light: SYELTQPLSVSVALGQTARITCGGDNIGNKDVHWYQQKPGQAPVLVIYRDSNRPSGIPEGFSGSNSGNTATLTISRAQAGDEADYYCQVWDSIWVFGGGTKLTVLGQPKAAPSVTLFPPSSEELQANKATLVCLISDFYPGAVTVAWKADSSPVKAGVETTTPSKQSNNKYAASSYLSLTPEQWKSHKSYSCQVTHEGSTVEKTVAPTECSGGGGSGGGGSQLQLQESGPGLVKPSETLSLTCTVSGDSISSTSYYWGWIRQPPGKGLEWIGSFYYSGSTYYNPSLKSRVTISVDTSKNQFSLKLNSVTAADTAVYYCARMQLWSYDVDVWGQGTTVTVSSGGGGSGGGGSGGGGSQSALTQPASVSGSPGQSITISCTGTSSDVGGYDYVAWYQQHPGKVPKLMIYDVSERPSGVSNRFSGSKSGNTASLTISGLQAEDEADYYCSSYTSTTTLVVFGGGTKLSVL
notes: Anti-PD-1 (W3055-1.153.7) human IgG4 S228P; also called W365-G14; W365G-14
